In patent publication US20220119489A1, “COMPOSITIONS AND METHODS FOR TREATING MUSCULAR DYSTROPHY AND RELATED DISORDERS” (CHILDREN'S MEDICAL CENTER CORPORATION, priority 2019, published 2022):

T1: CD82 polypeptide (human) (human)
T1 sequence (P27701 whole entry, looked up): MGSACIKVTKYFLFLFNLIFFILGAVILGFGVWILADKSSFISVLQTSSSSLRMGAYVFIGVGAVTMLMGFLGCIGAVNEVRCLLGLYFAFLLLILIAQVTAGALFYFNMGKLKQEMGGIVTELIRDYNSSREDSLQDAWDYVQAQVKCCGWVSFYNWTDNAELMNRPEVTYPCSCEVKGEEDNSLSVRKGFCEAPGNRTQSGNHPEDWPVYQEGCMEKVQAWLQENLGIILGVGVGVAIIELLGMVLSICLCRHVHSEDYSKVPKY


Molecular target: T1, CD82 polypeptide (human) (human)
Test: IP with anti CD82 antibodies, human myotubes, mass spectrometry

| Total | Unique | Binder |
| --- | --- | --- |
| 3 | 3 | TGF beta receptor 1 (receptor) LQCFCHLCTKDNFTCVTDGLCFVSVTETTDKVIHNSMCIAEIDLIPRDRPFVCAPSSKTGSVTTTYCCNQDHCNKIELPTTVKSSPGLGPVELAAVIAGPVCFVCISLMLMVYICHNRTVIHHRVPNEEDPSLDRPFISEGTTLKDLIYDMTTSGSGSGLPLLVQRTIARTIVLQESIGKGRFGEVWRGKWRGEEVAVKIFSSREERSWFREAEIYQTVMLRHENILGFIAADNKDNGTWTQLWLVSDYHEHGSLFDYLNRYTVTVEGMIKLALSTASGLAHLHMEIVGTQGKPAIAHRDLKSKNILVKKNGTCCIADLGLAVRHDSATDTIDIAPNHRVGTKRYMAPEVLDDSINMKHFESFKRADIYAMGLVFWEIARRCSIGGIHEDYQLPYYDLVPSDPSVEEMRKVVCEQKLRPNIPNRWQSCEALRVMAKIMRECWYANGAARLTALRIKKTLSQLSQQEGIKM |
| 3 | 3 | PRDX2_HUMAN (enzyme) ASGNARIGKPAPDFKATAVVDGAFKEVKLSDYKGKYVVLFFYPLDFTFVCPTEIIAFSNRAEDFRKLGCEVLGVSVDSQFTHLAWINTPRKEGGLGPLNIPLLADVTRRLSEDYGVLKTDEGIAYRGLFIIDGKGVLRQITVNDLPVGRSVDEALRLVQAFQYTDEHGEVCPAGWKPGSDTIKPNVDDSKEYFSKHN |
| 3 | 3 | EHD2_HUMAN (protein) MFSWLKRGGARGQQPEAIRTVTSALKELYRTKLLPLEEHYRFGAFHSPALEDADFDGKPMVLVAGQYSTGKTSFIQYLLEQEVPGSRVGPEPTTDCFVAVMHGDTEGTVPGNALVVDPDKPFRKLNPFGNTFLNRFMCAQLPNQVLESISIIDTPGILSGAKQRVSRGYDFPAVLRWFAERVDLIILLFDAHKLEISDEFSEAIGALRGHEDKIRVVLNKADMVETQQLMRVYGALMWALGKVVGTPEVLRVYIGSFWSQPLLVPDNRRLFELEEQDLFRDIQGLPRHAALRKLNDLVKRARLVRVHAYIISYLKKEMPSVFGKENKKKQLILKLPVIFAKIQLEHHISPGDFPDCQKMQELLMAHDFTKFHSLKPKLLEALDEMLTHDIAKLMPLLRQEELESTEVGVQGGAFEGTHMGPFVERGPDEAMEDGEEGSDDEAEWVVTKDKSKYDEIFYNLAPADGKLSGSKAKTWMVGTKLPNSVLGRIWKLSDVDRDGMLDDEEFALASHLIEAKLEGHGLPANLPRRLVPPSKRRHKGSAE |
| 3 | 3 | Annexin A1 (human) (protein) AMVSEFLKQAWFIENEEQEYVQTVKSSKGGPGSAVSPYPTFNPSSDVAALHKAIMVKGVDEATIIDILTKRNNAQRQQIKAAYLQETGKPLDETLKKALTGHLEEVVLALLKTPAQFDADELRAAMKGLGTDEDTLIEILASRTNKEIRDINRVYREELKRDLAKDITSDTSGDFRNALLSLAKGDRSEDFGVNEDLADSDARALYEAGERRKGTDVNVFNTILTTRSYPQLRRVFQKYTKYSKHDMNKVLDLELKGDIEKCLTAIVKCATSKPAFFAEKLHQAMKGVGTRHKALIRIMVSRSEIDMNDIKAFYQKMYGISLCQAILDETKGDYEKILVALCGGN |
| 3 | 3 | Eh domain containing 1 (protein) MFSWVSKDARRKKEPELFQTVAEGLRQLYAQKLLPLEEHYRFHEFHSPALEDADFDNKPMVLLVGQYSTGKTTFIRHLIEQDFPGMRIGPEPTTDSFIAVMHGPTEGVVPGNALVVDPRRPFRKLNAFGNAFLNRFMCAQLPNPVLDSISIIDTPGILSGEKQRISRGYDFAAVLEWFAERVDRIILLFDAHKLDISDEFSEVIKALKNHEDKIRVVLNKADQIETQQLMRVYGALMWSLGKIINTPEVVRVYIGSFWSHPLLIPDNRKLFEAEEQDLFKDIQSLPRNAALRKLNDLIKRARLAKVHAYIISSLKKEMPNVFGKESKKKELVNNLGEIYQKIEREHQISPGDFPSLRKMQELLQTQDFSKFQALKPKLLDTVDDMLANDIARLMVMVRQEESLMPSQVVKGGAFDGTMNGPFGHGYGEGAGEGIDDVEWVVGKDKPTYDEIFYTLSPVNGKITGANAKKEMVKSKLPNTVLGKIWKLADVDKDGLLDDEEFALANHLIKVKLEGHELPADLPPHLVPPSKRRHE |
| 3 | 3 | EHD4_HUMAN (protein) MFSWMGRQAGGRERAGGADAVQTVTGGLRSLYLRKVLPLEEAYRFHEFHSPALEDADFENKPMILLVGQYSTGKTTFIRYLLEQDFPGMRIGPEPTTDSFIAVMYGETEGSTPGNALVVDPKKPFRKLSRFGNAFLNRFMCSQLPNQVLKSISVIDSPGILSGEKQRISRGYDFCQVLQWFAERVDRIILLFDAHKLDISDEFSEAIKAFRGQDDKIRVVLNKADQVDTQQLMRVYGALMWSLGKVINTPEVLRVYIGSFWAQPLQNTDNRRLFEAEAQDLFRDIQSLPQKAAVRKLNDLIKRARLAKVHAYIISYLKKEMPSVFGKENKKRELISRLPEIYIQLQREYQISAGDFPEVKAMQEQLENYDFTKFHSLKPKLIEAVDNMLSNKISPLMNLISQEETSTPTQLVQGGAFDGTTEGPFNQGYGEGAKEGADEEEWVVAKDKPVYDELFYTLSPINGKISGVNAKKEMVTSKLPNSVLGKIWKLADCDCDGMLDEEEFALAKHLIKIKLDGYELPSSLPPHLVPPSHRKSLPKAD |
